Source: article PMC2185075 (The Journal of Cell Biology, 1999)
Read-outs that look alike come from different tables or passages of the source.

Key:
Assay in all cases: two-hybrid
[1] = molecular target: ASF/SF2, two-hybrid fusion (UniProt Q07955)
SC35, two-hybrid fusion [2] = molecular target: SC35, two-hybrid fusion (UniProt Q01130)
[3] = molecular target: ASF/SF2, two-hybrid fusion (UniProt Q07955); remark: listed apart in the source
SC35, two-hybrid fusion [4] = molecular target: SC35, two-hybrid fusion (UniProt Q01130); remark: listed apart in the source
[5] = molecular target: ASF/SF2, two-hybrid fusion (UniProt Q07955); remark: listed apart in the source
[6] = molecular target: ASF/SF2, two-hybrid fusion (UniProt Q07955); remark: listed apart in the source
SC35, two-hybrid fusion [7] = molecular target: SC35, two-hybrid fusion (UniProt Q01130); remark: listed apart in the source
[8] = molecular target: T1, U2AF65ΔRS, two-hybrid fusion (UniProt P26368 66-475)
T1 sequence (P26368 66-475, stated change not applied): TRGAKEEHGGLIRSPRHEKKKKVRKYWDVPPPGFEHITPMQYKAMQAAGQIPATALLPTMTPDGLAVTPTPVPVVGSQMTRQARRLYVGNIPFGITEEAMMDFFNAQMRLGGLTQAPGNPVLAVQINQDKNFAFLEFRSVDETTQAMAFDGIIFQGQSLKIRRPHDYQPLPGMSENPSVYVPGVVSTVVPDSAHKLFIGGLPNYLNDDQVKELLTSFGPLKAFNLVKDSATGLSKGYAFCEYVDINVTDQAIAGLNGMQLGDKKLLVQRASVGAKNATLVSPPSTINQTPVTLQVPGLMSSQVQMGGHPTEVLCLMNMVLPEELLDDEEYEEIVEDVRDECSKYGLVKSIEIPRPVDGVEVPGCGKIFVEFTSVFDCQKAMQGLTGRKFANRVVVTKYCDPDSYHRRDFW

[9] = molecular target: T2, U2AF65, two-hybrid fusion (UniProt P26368 1-475)
T2 sequence (P26368 whole entry, the tested form may be a part, one chain of several): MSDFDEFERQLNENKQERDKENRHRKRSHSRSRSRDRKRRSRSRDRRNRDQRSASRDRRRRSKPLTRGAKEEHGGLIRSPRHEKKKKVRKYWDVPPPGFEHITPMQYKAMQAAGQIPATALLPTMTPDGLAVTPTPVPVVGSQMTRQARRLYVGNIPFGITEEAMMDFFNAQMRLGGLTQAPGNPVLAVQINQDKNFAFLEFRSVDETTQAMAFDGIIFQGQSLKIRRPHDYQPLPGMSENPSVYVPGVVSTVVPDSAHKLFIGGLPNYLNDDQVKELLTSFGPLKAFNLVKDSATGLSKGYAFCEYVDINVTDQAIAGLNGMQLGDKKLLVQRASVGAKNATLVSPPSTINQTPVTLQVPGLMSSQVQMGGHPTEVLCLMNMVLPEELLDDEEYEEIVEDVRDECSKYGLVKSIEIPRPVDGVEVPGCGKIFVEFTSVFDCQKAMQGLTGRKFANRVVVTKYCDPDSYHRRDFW

[10] = molecular target: T1, U2AF65ΔRS, two-hybrid fusion; remark: listed apart in the source
[11] = molecular target: T2, U2AF65, two-hybrid fusion; remark: listed apart in the source

Chain of U1-70K, two-hybrid fusion (P08621 whole entry, the tested form may be a part): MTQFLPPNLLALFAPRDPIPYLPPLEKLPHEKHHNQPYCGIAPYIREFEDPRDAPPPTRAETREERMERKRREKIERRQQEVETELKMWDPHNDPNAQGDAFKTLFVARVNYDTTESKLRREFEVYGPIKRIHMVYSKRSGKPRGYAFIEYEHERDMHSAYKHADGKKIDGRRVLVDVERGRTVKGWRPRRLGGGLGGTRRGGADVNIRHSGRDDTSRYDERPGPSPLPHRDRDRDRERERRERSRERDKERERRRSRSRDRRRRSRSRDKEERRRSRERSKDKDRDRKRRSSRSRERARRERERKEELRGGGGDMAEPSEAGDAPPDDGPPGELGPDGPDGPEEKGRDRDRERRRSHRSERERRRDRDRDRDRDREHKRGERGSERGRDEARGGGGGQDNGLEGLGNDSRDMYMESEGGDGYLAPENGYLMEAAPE
Chain of ASF/SF2, two-hybrid fusion (Q07955 whole entry, the tested form may be a part): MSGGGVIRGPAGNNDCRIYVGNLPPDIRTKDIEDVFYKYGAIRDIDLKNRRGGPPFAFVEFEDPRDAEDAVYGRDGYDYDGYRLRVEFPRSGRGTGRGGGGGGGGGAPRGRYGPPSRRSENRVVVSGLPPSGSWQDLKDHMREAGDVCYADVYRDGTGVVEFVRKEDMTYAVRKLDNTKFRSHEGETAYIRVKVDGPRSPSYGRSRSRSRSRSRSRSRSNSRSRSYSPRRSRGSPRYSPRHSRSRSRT
Chain of SC35, two-hybrid fusion (Q01130 whole entry, the tested form may be a part): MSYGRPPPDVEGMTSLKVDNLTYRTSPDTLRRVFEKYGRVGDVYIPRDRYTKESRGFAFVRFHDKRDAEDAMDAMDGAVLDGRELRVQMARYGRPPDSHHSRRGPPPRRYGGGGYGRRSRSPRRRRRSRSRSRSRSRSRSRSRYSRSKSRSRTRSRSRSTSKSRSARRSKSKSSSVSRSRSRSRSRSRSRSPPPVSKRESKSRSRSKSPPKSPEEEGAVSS

Molecule | percentage of the maximal two-hybrid interaction (β-galactosidase) [1] | percentage of the maximal two-hybrid interaction (β-galactosidase) (SC35, two-hybrid fusion [2]) | percentage of the maximal two-hybrid interaction (β-galactosidase) [3] | percentage of the maximal two-hybrid interaction (β-galactosidase) (SC35, two-hybrid fusion [4]) | percentage of the maximal two-hybrid interaction (β-galactosidase) [5] | percentage of the maximal two-hybrid interaction (β-galactosidase) [6] | percentage of the maximal two-hybrid interaction (β-galactosidase) (SC35, two-hybrid fusion [7]) | two-hybrid β-galactosidase, fold over background (empty prey vector) [8] | two-hybrid β-galactosidase, fold over background (empty prey vector) [9] | two-hybrid β-galactosidase, fold over background (empty prey vector) [10] | two-hybrid β-galactosidase, fold over background (empty prey vector) [11]
U1-70K, two-hybrid fusion (from UniProt P08621 1-437) (natural protein; other documents disagree on this pair) | 100% | 104% | 98% | 86% | 35% | 100% | 100% |  |  |  | 
U2AF35ΔRS, two-hybrid fusion (domain or fragment) MAEYLASIFGTEKDKVNCSFYFKIGACRHGDRCSRLHNKPTFSQTIALLNIYRNPQNSSQSADGLRCAVSDVEMQEHYDEFFEEVFTEMEEKYGEVEEMNVCDNLGDHLVGNVYVKFRREEDAEKAVIDLNNRWFNGQPIHAELSPVTDFREACCRQYEMGECTRGGFCNFMHLKPISRELRRELYGRRR |  |  |  |  |  |  |  | 347 fold over background | 308 fold over background | 460 fold over background | 93 fold over background
U2AF35, two-hybrid fusion (natural protein) MAEYLASIFGTEKDKVNCSFYFKIGACRHGDRCSRLHNKPTFSQTIALLNIYRNPQNSSQSADGLRCAVSDVEMQEHYDEFFEEVFTEMEEKYGEVEEMNVCDNLGDHLVGNVYVKFRREEDAEKAVIDLNNRWFNGQPIHAELSPVTDFREACCRQYEMGECTRGGFCNFMHLKPISRELRRELYGRRRKKHRSRSRSRERRSRSRDRGRGGGGGGGGGGGGRERDRRRSRDRERSGRF |  |  |  |  |  |  |  | 340 fold over background |  |  | 
